Measurements published in US20070167369A1, “Novel use of isolated polypeptide comprising four FAS-1 domains, EM1 domain and RGD motif” (KYUNGPOOK NATIONAL UNIVERSITY INDUSTRY-ACADEMIC COOPERATION …, priority 2004, published 2007).

Assays:
HUVECs [1] = experiment: Endothelial tube formation in Matrigel (Example 14); format: cell-based, human; settings: for 70%-inhibition of tube formation observed at: concentration giving 70% inhibition; for inhibition of tube formation: various concentrations, 6 to 10 hours
Experimental: Matrigel (Chemicon, International Inc, Temecula, Calif.) was added (100 μl) into each well of a 96-well plate and polymerized for 30 minutes at 37° C. HUVECs were suspended in medium at a density of 3×10^5 cells/ml, and 0.1 ml of the cell suspension was pre-incubated with or without the indicated concentration of the truncated βig-h3, the fas-1 domain and Regenin for 40 min at 37° C., then seeded on the surface of the Matrigel. Cells were incubated for 6 to 10 hours at 37° C. The cells were then photographed, and branch points from 4 high-power fields (x200) were counted and averaged.

HUVECs [2] = experiment: Migration of endothelial cells to vitronectin, transwell (Example 13-2); format: cell-based, human; settings: for IC50: read-out: half-inhibition of migration toward vitronectin observed at; for inhibition of migration to vitronectin: various concentrations, 4 to 6 hours
Experimental: Cell migration assays were done in transwell plates (8 μm pore size, Costar, Cambridge, Mass.). The undersurface of the membrane was coated with 5 μg/ml of vitronectin at 4° C. and blocked for 1 hour at room temperature with PBS containing 2% BSA. HUVECs were suspended in medium at a density of 3×10^5 cells/ml, and 0.1 ml of the cell suspension was pre-incubated with or without the indicated concentration of the truncated βig-h3, the fas-1 domain and Regenin for 40 min at 37° C., then added to the upper compartment of the filter. Cells were allowed to migrate for 4 to 6 hours at 37° C. The filters were fixed with 8% glutaraldehyde and stained with crystal violet, and non-migrating cells on the upper surface of the filter were removed by wiping with a cotton swab. The extent of cell migration was determined by light microscopy, and within each well, counting was done in nine randomly selected microscopic high power fields (x200).

HUVECs [3] = experiment: Apoptosis by annexin V staining/FACS, endothelial cells (Example 7-1); format: cell-based, human; settings: 48 hours
Experimental: Annexin V is a protein binding to calcium-dependent phospholipid, and known to have a strong affinity for phosphatidylserine such that apoptosis can be assayed. For this reason, the present inventors performed a test using an annexin V staining kit (Santa Cruz Biotechnology Inc.).
Each of human umbilical vein endothelial cells (HUVECs) and melanoma cells (B16F10) was suspended in medium at a density of 5×10^5 cells/ml, added to each well of […] and incubated at 37° C. overnight. On the next day, the cells were washed one time with PBS buffer, then added with serum-free medium and incubated at 37° C. for 24 hours. 0.2% FBS-containing fresh medium was treated with the fas-1 domain (βig-h3 D-IV) prepared in Example 1, at various concentrations, then added to each well of the plate and incubated at 37° C. for 48 hours. A negative control was added with PBS, a positive control was incubated with TNF-α or Vitamin C, which are known to induce the apoptosis of endothelial cells and melanoma cells. FITC (fluorescein isothiocyanate)-conjugated annexin V antibodies were added and allowed to react at 4° C. for one hour. After completion of the reaction, unbound annexin V antibodies were removed with PBS buffer, and the apoptosis of the cells was analyzed using FACS (BD Biosciences).

β5/HEK293 cells = experiment: Apoptosis by annexin V staining, β5/HEK293 cells expressing αvβ5 integrin (Example 8); format: cell-based; settings: annexin V FACS
Experimental: To identify an integrin that mediates the induction of endothelial cell apoptosis by the fas-1 domain, the present inventors performed a test using HEK293 cells (β3/HEK293 and β5/HEK293) which had been transfected such as to express αvβ3 integrin or αvβ5 integrin.
Meanwhile, a β5/HEK293 cell that expresses αvβ5 integrin was prepared in the following manner. In order to construct a human β5 integrin expression vector, RT-PCR using human placenta poly(A)^+ RNA as a template was first performed to prepare a 2.8-kb β5 cDNA (Suzuki et al., Proc. Natl. Acad. Sci. USA, 87:5354-5358, 1990). The amplified β5 cDNA was digested with EcoRI, and then cloned into a pcDNA3 vector (Invitrogen). The resulting vector was named “β5/pcDNA3”. Thereafter, 1 μg of the β5/pcDNA3 vector was introduced into HEK293 cells (ATCC, catalog No. CRL 1573) by lipofectamin (Gibco). A stable transfected cell was screened using 1 mg/ml of G418. The cell transfected with the β5/pcDNA3 vector was named “β5/HEK293”.
pc/HEK293 cells, β3/HEK293 cells and β5/HEK293 cells were stained with annexin V to identify an integrin that mediates the induction of endothelial cell apoptosis by the fas-1 domain. Each of the cells was suspended in medium at a density of 5×10^5 cells/ml, added to each well of 6-well plated and incubated at 37° C. overnight. Following this, a test was performed in the same manner as in Example 7-1 above.

HUVEC = experiment: Adhesion of endothelial cells to vitronectin (Example 13-1); format: cell-based, human
Experimental: Flat-bottomed 96-well ELISA plates (Costar, Corning, Inc., NY) were incubated overnight at 4° C. with 5 μg/ml of vitronectin (Promega, Madison, Wis.) and blocked for 1 hour at room temperature with PBS containing 2% bovine serum albumin (BSA).
Primary human umbilical vein endothelial cells (HUVEC) were cultured at 37° C. in 5% CO2 in M199 medium supplemented with 20% fetal bovine serum. For all the experiments, HUVECs were used at passage 4 or less. HUVEC cells were suspended in medium at a density of 3×10^5 cells/ml, and 0.1 ml of the cell suspension was pre-incubated with or without the indicated concentration of the truncated βig-h3, the fas-1 domain and Regenin for 40 min at 37° C., then added to each well of the coated. After incubation for 5 to 10 minutes at 37° C., unattached cells were removed by rinsing with PBS. Attached cells were then incubated for 1 hour at 37° C. in 50 mM citrated buffer (pH 5.0) containing 3.75 mM p-nitrophenyl-N-acetyl-Dglycosamide and 0.25% Triton X-100. Enzyme activity was blocked by adding 50 mM glycine buffer (pH 10.4) containing 5 mM EDTA, and the absorbance was measured at 405 nm in a Bio-Rad model 550 microplate reader.

[4] = system: Murine melanoma cells (B16F10) tumor; experiment: B16F10 tumor growth in BALB/c nude mice (Example 15-1); format: in vivo; settings: for tumor growth inhibition compared with control: i.p. everyday from 7 days after inoculation
Experimental: Murine melanoma cells (B16F10) were cultured in RPMI 1640 containing 25 mM/L HEPES with 10% fetal bovine serum. Male BALB/c nude mice (5-6 weeks old) were implanted with 1×10^6 B16F10 cells into the flank subcutis and monitored tumor growth and neovascularization after systemic treatment with exogenous fas-1 domain (5 μM) or truncated βig-h3 (50 nM or 10 nM). Experimental groups were i.p. injected everyday from 7 days after tumor cell inoculation with the indicated concentration of fas-1 domain or truncated βig-h3 in a total volume of 0.1 ml PBS. The control group was given an equal volume of PBS each day. Each experimental group consisted of six to eight mice. Tumor sizes were measured using Vernier calipers every 2 to 3 days, and the measured values were substituted in the following equation (2) to calculate the volumes of the tumor. Volume of tumor=width^2×length×0.52. [Equation 2]
Wherein, ‘width’ is the shortest diameter.

[5] = various concentrations, vitronectin 5 μg/ml

B1: fas-1 domain: recombinant protein containing the fourth fas-1 domain of human βig-h3 (SEQ ID NO: 64) (protein, listed as Homo sapiens)
chain: MGTVMDVLKGDNRFSMLVAAIQSAGLTETLNREGVYTVFAPTNEAFRALPPRERSRLLGDAKELANILKYHIGDEILVSGGIGALVRLKSLQGDKLEVSLKNNVVSVNKEPVAEPDIMATNGVVHVITNVL
70%-inhibition of tube formation observed at (HUVECs [1]): 5 µM
inhibition of tube formation (HUVECs [1]): dose-dependent inhibition
IC50 (HUVECs [2]): 5000 nM
inhibition of migration to vitronectin (HUVECs [2]): dose-dependent inhibition
induction of apoptosis of HUVECs (HUVECs [3]): induced the apoptosis of HUVECs in a dose-dependent manner
induction of apoptosis of β5/HEK293 cells (β5/HEK293 cells): not induced
inhibition of adhesion to vitronectin (HUVEC; 500 nM): ineffective
inhibition of adhesion to vitronectin (HUVEC; [5]): dose-dependent inhibition
tumor growth inhibition compared with control ([4]; 5 μM (10 mg/kg)): equivalent levels of tumor growth inhibition

B2: truncated βig-h3: recombinant human βig-h3 with EMI domain, all four fas-1 domains and RGD motif; residues 68-653 of SEQ ID NO: 1 (SEQ ID NO: 66) (protein, listed as Homo sapiens)
chain: WYQRKICGKSTVISYECCPGYEKVPGEKGCPAALPLSNLYETLGVVGSTTTQLYTDRTEKLRPEMEGPGSFTIFAPSNEAWASLPAEVLDSLVSNVNIELLNALRYHMVGRRVLTDELKHGMTLTSMYQNSNIQIHHYPNGIVTVNCARLLKADHHATNGVVHLIDKVISTITNNIQQIIEIEDTFETLRAAVAASGLNTMLEGNGQYTLLAPTNEAFEKIPSETLNRILGDPEALRDLLNNHILKSAMCAEAIVAGLSVETLEGTTLEVGCSGDMLTINGKAIISNKDILATNGVIHYIDELLIPDSAKTLFELAAESDVSTAIDLFRQAGLGNHLSGSERLTLLAPLNSVFKDGTPPIDAHTRNLLRNHIIKDQLASKYLYHGQTLETLGGKKLRVFVYRNSLCIENSCIAAHDKRGRYGTLFTMDRVLTPPMGTVMDVLKGDNRFSMLVAAIQSAGLTETLNREGVYTVFAPTNEAFRALPPRERSRLLGDAKELANILKYHIGDEILVSGGIGALVRLKSLQGDKLEVSLKNNVVSVNKEPVAEPDIMATNGVVHVITNVLQPPANRPQERGDELADSALEI
70%-inhibition of tube formation observed at (HUVECs [1]): 0.05 µM
inhibition of tube formation (HUVECs [1]): dose-dependent inhibition
inhibition of migration of endothelial cells to vitronectin (HUVECs [2]; 500 nM): strongly suppressed
IC50 (HUVECs [2]): 50 nM
inhibition of migration to vitronectin (HUVECs [2]): dose-dependent inhibition
inhibition of adhesion to vitronectin (HUVEC; 500, 50 and 10 nM): clear dose-response effect
inhibition of adhesion to vitronectin (HUVEC; [5]): dose-dependent inhibition
tumor growth inhibition ([4]; 10 nM (68 μg/kg), i.p. everyday): inhibitory effect of tumor growth
tumor growth inhibition compared with control ([4]; 50 nM (340 μg/kg)): equivalent levels of tumor growth inhibition
